According to US20110319324A1:

Assays:
[1] = target: EGF receptor (ErbB1) on HeLa 229 cells (UniProt P00533); test: cell-based or functional assay
[2] = target: ErbB1 receptor (EGF receptor) on HeLa cells (UniProt P00533); test: cell-based or functional assay

Chain of PEGylated betacellulin produced using the mPEG-ButyrALD-20K reagent (P35070 other isoform, or with tags, fused parts or gaps limits assumed): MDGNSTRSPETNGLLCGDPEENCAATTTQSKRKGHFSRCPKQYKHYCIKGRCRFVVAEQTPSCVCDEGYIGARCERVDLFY
Chain of PEGylated betacellulin produced using the mPEG-SMB-20K reagent (P35070 other isoform, or with tags, fused parts or gaps limits assumed): as above
Chain of Unreacted (SEC fraction of the PEGylation reactions, presumably unreacted betacellulin) (P35070 other isoform, or with tags, fused parts or gaps limits assumed): as above

Row | ELISA activity is equivalent to [BTC] nM (phospho-EGFR pY1068 ELISA, HeLa 229 cells; 40 nM submitted; SEC column S70) [1] [nM] | activity % (phospho-EGFR pY1068 ELISA, HeLa 229 cells) [1] [%] | ELISA activity is equivalent to [BTC] nM (phospho-EGFR pY1068 ELISA, HeLa 229 cells; 40 nM submitted; SEC column S200) [1] [nM] | activity % (phospho-EGFR pY1068 ELISA, HeLa 229 cells; SEC column S200) [1] [%] | betacellulin activity in the phospho-EGFR pY1068 ELISA on HeLa 229 cells (fold lower than unreacted betacellulin) [2] | betacellulin activity in the phospho-EGFR pY1068 ELISA on HeLa 229 cells ([2]; scale: % reduction against unreacted betacellulin) | Substance
1 | 0 | 0 | – | – | – | – | Unreacted (SEC fraction of the PEGylation reactions, presumably unreacted betacellulin) (from UniProt P35070 32-111) (ligand)
2 | – | 26 | 14 | 34 | 3 | – | PEGylated betacellulin produced using the mPEG-SMB-20K reagent (from UniProt P35070 32-111) (ligand)
3 | – | 58 | – | 55 | – | < 50 | PEGylated betacellulin produced using the mPEG-ButyrALD-20K reagent (from UniProt P35070 32-111) (ligand)
